Source: PMC7422940 (Journal of bone and mineral research : the official journal …, 2019)

Molecular target: T1, His-tagged full-length ATF4 (mouse, UniProt Q06507 1-349)
T1 sequence (looked up): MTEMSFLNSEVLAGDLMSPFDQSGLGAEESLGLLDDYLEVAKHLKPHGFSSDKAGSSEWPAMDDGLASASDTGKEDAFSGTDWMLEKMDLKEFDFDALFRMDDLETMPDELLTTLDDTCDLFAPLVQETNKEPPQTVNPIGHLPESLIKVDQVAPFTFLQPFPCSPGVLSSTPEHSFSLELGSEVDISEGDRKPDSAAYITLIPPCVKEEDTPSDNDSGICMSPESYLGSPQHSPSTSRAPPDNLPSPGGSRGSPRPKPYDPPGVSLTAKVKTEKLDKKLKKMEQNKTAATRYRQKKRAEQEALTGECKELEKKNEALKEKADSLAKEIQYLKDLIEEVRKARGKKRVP
Test: pull-down

B1: GST-Hop2^81−147 (domain or fragment, mouse, UniProt O35047 81-147, looked up)
chain: VSDADLHGLDASIVALTAKVQSLQQSCRHMEAELKELTSALTTPEMQKEIQELKKECAQYTERLKNI
B1: binds.
